Source: patent EP4762086
Several values for one entry are separate records, joined by “and”; a condition that tells them apart may be missing. Equal entries are not always repeated.

Target: MUC5AC antigen (human, UniProt P98088)
Test: SPR

Kd: 7.38 nM and 5.6 nM
B1: NEO-102 (Ensituximab) (antibody, V domains shown)
VH: QVQLKESGPDLVAPSQSLSITCTVSGFELSKFGVIWVRQPPGKGLEWLGVIWGDGSTVYNSKLISRLSISKENSKSQVFLKLNSLQADDTATYYCVKPGGDYWGHGTSVTVSS
VL: QVVLTQSPVIMSASPGEKVTMTCSASSSISYMYWYQQKPGTSPKRWIYDTSKLGSGVPARFSGSGSGTSYSLTISNMEAGDAATYYCHQRDSYPWTFGGGTNLEIK
